# Experimental data as given in US20090031441A1 (NATIONAL UNIVERSITY CORPORATION NAGOYA UNIVERSITY, published 2009).
# T1: RGA (Arabidopsis DELLA protein), yeast two-hybrid prey in pGADT7 AD vector (Arabidopsis, UniProt Q9SLH3 1-587)
# T1 construct: also called AtDELLA
# T1 sequence (looked up): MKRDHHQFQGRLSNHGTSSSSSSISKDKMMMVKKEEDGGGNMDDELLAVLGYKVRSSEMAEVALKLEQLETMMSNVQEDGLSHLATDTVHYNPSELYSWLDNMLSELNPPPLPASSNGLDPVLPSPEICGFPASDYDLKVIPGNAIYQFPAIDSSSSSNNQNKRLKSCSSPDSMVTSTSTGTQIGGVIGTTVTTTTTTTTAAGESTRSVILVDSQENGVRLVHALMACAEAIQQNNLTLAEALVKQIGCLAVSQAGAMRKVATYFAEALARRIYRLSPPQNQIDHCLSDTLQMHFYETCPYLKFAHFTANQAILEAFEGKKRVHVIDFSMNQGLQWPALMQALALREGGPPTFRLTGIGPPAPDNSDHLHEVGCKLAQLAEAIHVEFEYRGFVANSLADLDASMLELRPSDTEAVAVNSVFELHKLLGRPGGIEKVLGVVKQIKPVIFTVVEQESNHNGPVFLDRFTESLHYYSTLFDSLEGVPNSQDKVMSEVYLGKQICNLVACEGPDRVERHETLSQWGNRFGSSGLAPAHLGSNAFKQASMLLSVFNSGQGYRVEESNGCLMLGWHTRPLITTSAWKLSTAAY
# Molecular target: T1, RGA (Arabidopsis DELLA protein), yeast …
# Test: yeast two-hybrid Assay B (beta-galactosidase), GA4 dose response 10^-5 to 10^-9 M
# Description: Each AtGID1 was used as a bait while AtDELLA was a prey. GA₄ (10⁻⁵ M) was added to the medium. The bars indicates β-galactosidase activity when o-nitrophenol-β-D-galactopyranoside was used as a substrate (Assay B). The growth of each transformant in the defined medium for 2 days (Assay A) is shown beneath of each bar graph. The experiment was carried out in quadruplicate. The SD value shown in the figure was determined from three measurements. Panel B) depicts the dose response in AtGID1-RGA interaction in Assay B of Y2H. GA₄ (10⁻⁵ to 10⁻⁹ M) was added to the medium. The experiment was conducted in duplicates. The SD value shown in the figure was determined from three measurements. Panel C) depicts the results of an evaluation of the in vitro GA-binding potency of AtGID1 using AtDELLA. Left panel, 15 minutes after mixing AtGID1c (C), tritiated GA, with an excess amount of non-labeled GA (+) or without non-labeled GA (−). GAI (G) or RGA (R) was added, and then the GA-binding activity in each reaction mixture was measured according to the standard method. Recombinant protein originating from the vector (v) was used as a negative control. The experiment was carried out in duplicates. The SD value was determined from three measurements. Right panel, a profile of Western blotting for recombinant AtDELLA using an antibody to His tag. G, GAI; R, RGA; v, vector; M, molecular weight marker. […]
binder,measurement,value
"AtGID1b (At3g63010), yeast two-hybrid bait in pGBKT7 DNA-BD vector (receptor, not shown: small tags and cut ends, Bait fusion for the Y2H assays; also called Arabidopsis GID1) MAGGNEVNLNECKRIVPLNTWVLISNFKLAYKVLRRPDGSFNRDLAEFLDRKVPANSFPLDGVFSFDHVDSTTNLLTRIYQPASLLHQTRHGTLELTKPLSTTEIVPVLIFFHGGSFTHSSANSAIYDTFCRRLVTICGVVVVSVDYRRSPEHRYPCAYDDGWNALNWVKSRVWLQSGKDSNVYVYLAGDSSGGNIAHNVAVRATNEGVKVLGNILLHPMFGGQERTQSEKTLDGKYFVTIQDRDWYWRAYLPEGEDRDHPACNPFGPRGQSLKGVNFPKSLVVVAGLDLVQDWQLAYVDGLKKTGLEVNLLYLKQATIGFYFLPNNDHFHCLMEELNKFVHSIEDSQSKSSPVLLTP",binding result,binds
